Assays:
[1] = molecular target: HLA-B*27:05 single chain trimer (SCT): NP 383-391 peptide - linker - human beta-2 microglobulin - linker - HLA-B*27:05 heavy chain - V5 (influenza virus | human); experiment: non-reducing two-dimensional isoelectric focusing gel electrophoresis and immunoblot of immunoprecipitates; anti-tapasin immunoprecipitates resolved by charge and then by non-reducing SDS-PAGE, immunoblot with anti-V5
[2] = molecular target: HLA-B*27:05 single chain trimer (SCT): NP 383-391 peptide - linker - human beta-2 microglobulin - linker - HLA-B*27:05 heavy chain - V5 (influenza virus | human); experiment: non-reducing two-dimensional isoelectric focusing gel electrophoresis and immunoblot; 1% NP40 lysates resolved by charge in the first dimension and by non-reducing SDS-PAGE in the second, immunoblot with anti-V5; monomers and dimers compared by pI
[3] = molecular target: HLA-B*27:05 class I heavy chain (HC), V5 tagged (human); experiment: non-reducing two-dimensional isoelectric focusing gel electrophoresis and immunoblot of immunoprecipitates; anti-tapasin immunoprecipitates resolved by charge and then by non-reducing SDS-PAGE, immunoblot with anti-V5
[4] = molecular target: HLA-B*27:05 class I heavy chain (HC), V5 tagged (human); experiment: non-reducing two-dimensional isoelectric focusing gel electrophoresis and immunoblot; 1% NP40 lysates resolved by charge in the first dimension and by non-reducing SDS-PAGE in the second, immunoblot with anti-V5; monomers and dimers compared by pI

Row | stoichiometry N [3] | stoichiometry N [4] | Substance | stoichiometry N [1] | stoichiometry N [2]
1 | – | – | HLA-B*27:05 single chain trimer (SCT): NP 383-391 peptide - linker - human beta-2 microglobulin - linker - HLA-B*27:05 heavy chain - V5 (from UniProt P61769 21-119) (peptide-MHC) | 2 | 2
2 | 2 | 2 | HLA-B*27:05 class I heavy chain (HC), V5 tagged (natural protein) | – | –

— PMC9359109
